Assay: yeast display, Sf9 membrane polyspecificity reagent, FACS + sequencing; frameworks hold sequencing errors
Outline: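 Using colony PCR, genes from sorted yeast display clones were amplified, then sequenced on MiSeq at 2 × 250 and filtered by CDR length. The clones had been stained with 10% biotinylated, detergent-solubilized Sf9 membrane reagent for 1 hour at 4 °C and sorted by FACS into low and high (top ~1%) gates on anti-HA and streptavidin fluorescence. Polyreactivity labels come from the gate of origin.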

Row | Sequence | polyreactivity (PSR sort gate)
1 | QVQLVESGGGLVQAGGSLRLSCAASGRTSDGYAMGWYRQAPGKERELVAGITEGGGDTYYADSVKGRFTISRDNAKNTVYLQMNSLKPEDTAVYYCNAVEGSRLPYDYWGQGTQVTVSS | low polyreactivity
2 | QVQLEESGGGLVQAGGSLRLSCAASGFNFDVYAMGWYRQAPGKERELVAAISRSGGSTYYADSVKGRFTISRDNAKNTFYLQMNSLKPEDTAVYYCATDLLNNVDYDYWGQGTQVTVSS | low polyreactivity
3 | QVQLVESGGGLVQAGGSLRLSCAASGRTFRWYGMGWYRQAPGKEREFVAAISFRGGTTYYADSVKGRFTISRDNAKNTVYLQMNSLKPEDTAVYYCAARYGYYTSDYKYYYWGQGTQVTVSS | high polyreactivity
4 | QVQLVESGGALVQAGGSLRLSCAASGRIFRKNAMGWYRQAPGKERELGAAISGGGGSTYYAVSVKGRFTISRDNAKNTVYLQMNSLQPEDTAVYYCNAPILPGYWGQGTQVTVSS | high polyreactivity
5 | QVQLVESGGGLVQAGGSLRLSCAASGRIFGLNTMGRYRQAPGKERELVAAITSSAGSTYYADSVKGRCTISRDNAKNTVYLQMNSLKPEDTAVYYSAARVSYLGSFTSQRYYYWGLGTQVTVSS | high polyreactivity
6 | QVQHVESRGGLVQAGGSLRLSCAASGSIFFAYAMGWDRQGPGKEREFVAAISASGGSTSYADSVKGRFTISRDNAKNTVYLQMNSLKPEDTAVYYCATEHSVTTYDYWGQGTQVTVSS | low polyreactivity
7 | QVQLVESGGGLVQAGGRLRLSCAASGRIFKRYAMGWYRQAPGKESELVAAISWRGGSTYYADSVKGRFTISRDNAKNTVYFQMNSLKPEDTAVYYCAAGYFSYRRYDYWGQGTQVTVSS | high polyreactivity
8 | QVQLVESGGGLVQAGGSLRLICAASGRTFRYNAMGWYRQAPGKERELVASITSGGSTNYADSVKGRFTISRDHAKNTVYLQMNSLKPEDTAVYYCAKDHYYRYEDGDYWGQGTQVTVSS | low polyreactivity
9 | QVQLVESGGGLVQAGGSLRLSCAASGRIFRFYAMGWSRQAPGKEREMVAVISTGGRTNYADSVKGRFTISRDNGKNTVYLQMNSLKPVDSAVYYCAAEYTNIGRYDGWNYNYWGQGTQVTVSS | high polyreactivity
10 | QVQLVESGGGLVQAGGSLRLSCAASGGTLRGYAMGWYRQAPGKERELVAAISKRSGSTYYADSVKGRFTISRDNAKNTVYLQMNSLKPEDTAVYYCNTRGLTTEGHYYWGQGTQVTVSS | high polyreactivity
11 | QVQLVESGGGLVHAGGSLRLSCAASGFIFDRYVMGWYRQAPGKERDLVAAINRSGGSTYYADSVKGRFTISRDNAKNTVYLQMNSLKPEDTAVYYCAADRAGSFTTMDYWGHGTQVTVSS | high polyreactivity
12 | QVQLVESGGGLVQAGGSLRLSCAASGSISPQNVMGWYRQAPGKERELVAAITWTGTSTYADSVKGRFTISRDNAKNTVYLQMNSLKPEDTAVYYCAARYYAPRWFRYDYWGQGTQVTVSS | low polyreactivity
13 | QVQLVESGGGLVQAGGSLRLSCAASGSTFPRYAMGWFRQAPGKEREFVAAISRRGGSTYYADSVKGRFTISRDNAKNTVYLQMNSLKPEDTAVYYCANRVRTGSVGNFNYWGQGTQVTVSS | high polyreactivity
14 | QVQLVESGGGLVQAGGSLRLSCAASGSTFHRYALGWYRQAPGKERELVATITSRGGITYYADSVKGRFTISRDNAKNTVYLQMNSLKPEDTAVYYCYRYDYWGQGTQVTVSS | low polyreactivity
15 | QVQLVESGGGLVQAGGSLRLSCAASGFTFVYYAMGWYRQAPGKERALVASITQSGGSTRYADSVKGRFTISRDNAKNTVYLQMNSLKPEDTAVYYCNRRLYRRWGLDWQYYYWGQGTQVTVSS | high polyreactivity
16 | QVQLVESGGGLVQAGGSLRLSCAASGFIFNHYAMGWYRQAPGKEREFVAAISWSGGSTYYADSVKGRFTISRDNAKNTVYLQMNSLKPEDTAVYYCAASYNCLWHGDYDYWGQGTQVTVSS | low polyreactivity
17 | QVQLVESGGGLVQAGGSLRLICDASGRIFSFNAMGWSRQAPGKETELVAGITYGGNTYYADSVKGRFTISRDNANNTVYLQMNSLKPEDTAVYYCSAVRGVRHDYWGQGTQVTVSS | low polyreactivity
18 | QVQLQESCGALVQAGGTLRLSCAASGSIFEQLDMGWNRQAPGKELEFVAAIGTGSTTYYADSVKGRFSISRDNAKNTVYLQRNSLKPEDTAVYYCAVTYSVYLPFRYWGQGTQVTVSS | high polyreactivity
19 | QDQLVESGGGLVQAGGSLRLSCAASGIIIVAYAMGWYRQAPGKERELVAAITVSGARTYYADSVKGRFTISRDNAKITVYFQMNSLKPEDTAVYYCAARYAGGGVLGHGYWGQGTQVTVSS | high polyreactivity
20 | QVQLVESGGGLVQAGGSLRLSCAASGRTVYRYAMGWYRQAPGKERELVAAITGSGSSTYYADSVKGRFTISRDNAKNTVYLQMNSLKPEDTAVYYCAAARPRLGSAGKFGYWGQGTQVTVSS | high polyreactivity
21 | QVQLVESGGGLVQAGGSLRLSCAASGRILQFNAMGWYRQATGKERELVAAISTSGGRTYYADSVKGRFTISRDNAKNTVYLQMISLKPEDTAVYDCNAVAYKLMGYWGQGTQVTVSS | high polyreactivity
22 | QVQLVESGGGLVQAGGSLRLSCAASGRTFGVYAMGWYRQAPGKERELVAVIRVIGGSTNYADSVKGRFTISRDNAKNTVYLQMNSLKPEDTAVYYCAADQYYSSDYDYWGQGTQVTVSS | low polyreactivity

Row | Sequence | polyreactivity (PSR sort gate)
23 | QVQLVESGGGLVQAGGSLRLSCAASGSIFYGNAMGWDRQAPGNARELVAAISWNGGSTYYADSVKGRFTISRDNAKNTVYLQMNSLKPEDTAVYYSNADYYYEVDSWGQGTQVTVSS | low polyreactivity
24 | QVHLVESGGGLVQAGGSLRLRCAASGSNLESYAMGWYRQAPGKEMELVADITYDGGITYYADSVKGRFTISRDNAKNTVYLQMNSLKPEDTAVYYCATEYRYWQSDYSTYFPYDYWGQGTQVTVSS | low polyreactivity
25 | QVQLVESGGGLVQAGGSLRISCAASGRTIDSYAMGWYRQAPGKERELVAAISWGGGSTYYADSVKGRFTISRDNAKNTVYLQMNSLKPEDTAVYYCAARWNYTEFDYWGQGTQVTVSS | low polyreactivity
26 | QVQLVESGGGLVQAGGSLRLSCAASGGIFWYNAMGWYRQAPGKERELVAAITWNGGRTYYADSVKGRFTISRDNAKNTVYLQMNSLKPEDTAVYYCAARSPVKRQSRKQYYYWGQGTQVTVSS | high polyreactivity
27 | QVQLVESGGGLVQAGGSLRLSCAASGFTFHRNAMGWYRQAPGKERELVAAISTRGGSTAYADSVKGRFTISRDNAKNTVYLQMNSLKPEDTAVYYCAAATSPGIYDYWGQGTQVTVSS | high polyreactivity
28 | QVQLVESGGGLVQAGGSLRLSCAASGRTFVNYALGWYRQAPGKERELVAAISGGGGTNYADSVKGRFTISRDNAKNTVYLQMNSLKPEDTAVYYCNAVPSQHDEFDYWGQGTQVTVSS | low polyreactivity
29 | QVQLVESGGGLVQAGGSLRLSCAASGRIFEEYAMGWYRQAPGKERELVAAITWGGSTYYADSVKGRFTISRDNAKNTVYLQMNSLKPEDTAVYYCAALKSYYWYTPRYRGDYWGQGTQVTVSS | low polyreactivity
30 | QVQLVESGGGLVQAGGSLRLSCAASGRIFYLNAMGWYRVAPGKERELVAAITRSAASTHYADSVKGRFTISRDNAKNTVYLQMNSLKPEDTAVYYCAARFWYDYRHYDYWGQGTQVTVSS | low polyreactivity
31 | QVQLEESGGGLVQAGGSLRLSCAASGGIFDYNSMGWYRQAPGKERELVAAISSGASTTYADSVKGRFTISRDNAKNTVYLQMNSLKPEATAVYYCAAYWKSRYLSGLEYYSWGQGTQVTVSS | low polyreactivity
32 | QVQLVESGGGLVQAGGSLRLSCAASGITFRYYAMGWYSQAPGKERELVAAITRGGRTNYADSVKGRYTISRDNAKNTVYLQMNSLKPEDTAVYYCAAGRVGRLSEYNYWGQGTQVTVSS | high polyreactivity
33 | QVQLVESGGGLVQAGGSLRLSCAPSGSIFEINAMGWYRQAPGKERELVAAITGSGGSTHYADSVKGRFTISRDNAKKTVYLEMNSLKPEDTAVYYCAAVQRYQYGYWGQGTQVTVSS | low polyreactivity
34 | QVQLVESGGGLVQAGGSLRLSCAASGSTSDINAMGWYRQAPGKERELVAVITDSSNTDYADSVKGRFTISRDNAKNTVYLQMNSLKPEDTAVYYCAADRDEPDPYDYWGQGTQVTVSS | low polyreactivity
35 | QVQLVESGGGLVQAGGSLRLSCAASGRTFSYYAMGCYRQAPGKERELVAAISQRGGSTYYADSVKGRFTISRDNAKNTVYLQMNSLKPEDTAVYYCAVLVSRYRYRVLDDYWGQGTQVTVSS | high polyreactivity
36 | QVQLVESGGGLVQAGGSLRLSCAASGSTFVTNGMGWYRQAPGKERELVAAISGNVGSTYYADSVKGRFTISRDNAKNTVYLQMNSLKPEDTAVYYCAARQYRPSDYDYWGQGTQVTVSS | low polyreactivity
37 | QVQLVESGGGLVQAGGSLRLSRAASGRTFYGYAMGWYRQAPGKESELVARIRSGGSTNYADSVKGRFTISRDNAKNTFYLQMNSLIPEDTAVYYCAARPGAAGYKYYYWGQGTQVTVSS | high polyreactivity
38 | QVQLVESGGGLVQAGGSLRLSCAASGSIFELNAMGWYRQAPGKERELVAAITSSGSSTYYADSVKGRFTISRDNAKNTVYLQMNSLKPEDTAVYYCFRPHDYWGQGTQVTVTS | low polyreactivity
39 | QVHLVESGGGLVQAGGSLRLSCAASGFTFYAMGWYRQAPGKERELVAAIDQGGDRTYYADSVKGRFTISRDNAKNTVYFQMNSLKPEDTAVYYCAARYRRTWRLIYWGQGTQVTVSS | high polyreactivity
40 | QDQLVESGGCLVQAGGSLRLSCASSGSTFGDYAMGWYRQAPGKERELVAAISVSGASTYYADSVKGRFTISRDNAKNTVYLQMNSLKPEDTAVYYCAASYDTIGDSWGQGTQVSVSS | low polyreactivity
41 | QVQLVESGGGLDQAGGSLRLSCDASGGTFLSYAMGWYRQAHGKERELVARINSGSSTYYADSVKGRFTISRDNAKNTVYLQMNSLKPEDTAVYYCATRWVSRTHGYWGQGTQVTVSS | low polyreactivity
42 | QVQLVESGGGLVQAGGSLRLSCAASGYTFQTYAMGCYRQAPGKERELVAAITRSGTRTYYADSVKGRFTISRDNAKNTVYLQMYSLKPEDTAVYYCAAETYYSIYDYWGQGTQVTVSS | high polyreactivity
43 | QVQLVESGGGLVQAGGSLRLSCAASGSTFGYYGMGWYRQAPGKERELVAAISASGGRTYYADSVKGRFTISRDNAKITVYLQMNSLKPEDTAVYYCAATVYAWRSTYGYWGQGTQVTVSS | high polyreactivity

Reference: the nanobody polyreactivity screen of Harvey et al. (2022)
